{
  "source": "patent US20160145328A1",
  "biological_target": "protein A (UniProt P38507)",
  "assay": "Heat/Cool phage ELISA: phage-displayed VH, 80 C 10 min then 4 C 10 min, captured on coated protein A; signal as % of untreated sample",
  "data": [
    {"substance": "DP47 VH SY_31/32-DE", "values": [
      {"measurement": "Retained binding to protein A (%)", "value": 50, "unit": "%"}
    ]}
  ]
}
